Laboratory results: publication PMC9473612

Target: EB1-mScarlet (UniProt Q9XZ57)
Assay: co-immunoprecipitation (mNeongreen-trap) with immunoblot quantification
Settings: S2 cells overexpressing the constructs; n = 3 independent replicates; parent: est. 100; read off a plot

Sequence of UniProt Q9XZ57 (Q9XZ57 entry or part of it): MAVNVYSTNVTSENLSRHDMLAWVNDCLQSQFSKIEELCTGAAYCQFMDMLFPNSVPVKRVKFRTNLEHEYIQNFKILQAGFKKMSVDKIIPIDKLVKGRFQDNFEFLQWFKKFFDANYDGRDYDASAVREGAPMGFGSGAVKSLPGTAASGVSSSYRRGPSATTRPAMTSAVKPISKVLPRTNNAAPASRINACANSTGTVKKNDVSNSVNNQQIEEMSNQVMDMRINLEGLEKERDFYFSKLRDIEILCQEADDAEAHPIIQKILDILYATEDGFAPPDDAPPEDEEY

Substance | percent of parent (% relative to WT)
mNeongreen RhoGEF2 (1–619), wild type 7A (seven serines proximal to the SKIP motif changed to A; residue numbers not printed) | 76
mNeongreen RhoGEF2 (1–619), wild type 7E (seven serines proximal to the SKIP motif changed to E; residue numbers not printed) | 56
mNeongreen RhoGEF2 (1–619), wild type SKIP→SKNN (I→N; P→N in the SxIP motif; residue numbers not printed) | 78
